Patent US20210032299A1 (Eli Lilly, published 2021)
Starred links: 1 amine or outer side, 2 acyl side, 3 side chain; linkers in the order of their positions; H or OH if unused. Non-standard residues stand in square brackets, D forms with d. Groups on a side chain read outwards from the residue. No end group written: not given here. *: point of attachment. C20 diacid = O=C(O)CCCCCCCCCCCCCCCCCCC(=O)*; C18 diacid = O=C(O)CCCCCCCCCCCCCCCCC(=O)*; γGlu = O=C(O)[C@H](CCC(=O)[*:2])N[*:1]; 4Pal = N[C@@H](Cc1ccncc1)C(=O)O; αMeL = CC(C)C[C@](C)(N)C(=O)O; AEEA = NCCOCCOCC(=O)O; Aib = CC(C)(N)C(=O)O

T1: human glucose-dependent insulinotropic polypeptide (GIP) receptor (human, UniProt P48546 22-466)
T1 construct: whole, on cells; Assayed as crude membranes of stably transfected CHO cells; also called hGIPR; human GIP receptor
T1 sequence (looked up): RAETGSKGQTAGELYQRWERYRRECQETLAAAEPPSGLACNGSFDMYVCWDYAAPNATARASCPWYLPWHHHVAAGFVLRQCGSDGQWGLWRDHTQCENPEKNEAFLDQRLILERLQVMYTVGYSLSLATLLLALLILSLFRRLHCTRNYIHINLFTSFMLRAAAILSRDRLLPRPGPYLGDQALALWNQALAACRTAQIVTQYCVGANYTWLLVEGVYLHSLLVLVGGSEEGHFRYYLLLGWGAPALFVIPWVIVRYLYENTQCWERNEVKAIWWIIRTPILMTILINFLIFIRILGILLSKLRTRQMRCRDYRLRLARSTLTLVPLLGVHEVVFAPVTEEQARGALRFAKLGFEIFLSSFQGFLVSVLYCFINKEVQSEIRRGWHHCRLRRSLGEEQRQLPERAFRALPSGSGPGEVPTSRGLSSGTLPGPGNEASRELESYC

B1: Example 84 (peptide)
peptide: Y[Aib]EGTFISDYSI[αMeL]LDEK([AEEA-AEEA-γGlu-C20 diacid])HQ[Aib]DFVE[4Pal]LLAQGPSSGAPPPS-NH2
modifications: N-terminus assumed
SMILES: CC[C@H](C)[C@H](NC(=O)[C@H](Cc1ccccc1)NC(=O)[C@@H](NC(=O)CNC(=O)[C@H](CCC(=O)O)NC(=O)C(C)(C)NC(=O)[C@@H](N)Cc1ccc(O)cc1)[C@@H](C)O)C(=O)N[C@@H](CO)C(=O)N[C@@H](CC(=O)O)C(=O)N[C@@H](Cc1ccc(O)cc1)C(=O)N[C@@H](CO)C(=O)N[C@H](C(=O)N[C@@](C)(CC(C)C)C(=O)N[C@@H](CC(C)C)C(=O)N[C@@H](CC(=O)O)C(=O)N[C@@H](CCC(=O)O)C(=O)N[C@@H](CCCCNC(=O)COCCOCCNC(=O)COCCOCCNC(=O)CC[C@H](NC(=O)CCCCCCCCCCCCCCCCCCC(=O)O)C(=O)O)C(=O)N[C@@H](Cc1c[nH]cn1)C(=O)N[C@@H](CCC(N)=O)C(=O)NC(C)(C)C(=O)N[C@@H](CC(=O)O)C(=O)N[C@@H](Cc1ccccc1)C(=O)N[C@H](C(=O)N[C@@H](CCC(=O)O)C(=O)N[C@@H](Cc1ccncc1)C(=O)N[C@@H](CC(C)C)C(=O)N[C@@H](CC(C)C)C(=O)N[C@@H](C)C(=O)N[C@@H](CCC(N)=O)C(=O)NCC(=O)N1CCC[C@H]1C(=O)N[C@@H](CO)C(=O)N[C@@H](CO)C(=O)NCC(=O)N[C@@H](C)C(=O)N1CCC[C@H]1C(=O)N1CCC[C@H]1C(=O)N1CCC[C@H]1C(=O)N[C@@H](CO)C(N)=O)C(C)C)[C@@H](C)CC
B2: Example 10 (peptide)
peptide: Y[dA]EGTFISDYSILLDKK([AEEA-AEEA-γGlu-C20 diacid])HQQDFVNWLLAGGPSSGAPPPS-NH2
modifications: N-terminus assumed
SMILES: CC[C@H](C)[C@H](NC(=O)[C@H](CO)NC(=O)[C@H](Cc1ccc(O)cc1)NC(=O)[C@H](CC(=O)O)NC(=O)[C@H](CO)NC(=O)[C@@H](NC(=O)[C@H](Cc1ccccc1)NC(=O)[C@@H](NC(=O)CNC(=O)[C@H](CCC(=O)O)NC(=O)[C@@H](C)NC(=O)[C@@H](N)Cc1ccc(O)cc1)[C@@H](C)O)[C@@H](C)CC)C(=O)N[C@@H](CC(C)C)C(=O)N[C@@H](CC(C)C)C(=O)N[C@@H](CC(=O)O)C(=O)N[C@@H](CCCCN)C(=O)N[C@@H](CCCCNC(=O)COCCOCCNC(=O)COCCOCCNC(=O)CC[C@H](NC(=O)CCCCCCCCCCCCCCCCCCC(=O)O)C(=O)O)C(=O)N[C@@H](Cc1c[nH]cn1)C(=O)N[C@@H](CCC(N)=O)C(=O)N[C@@H](CCC(N)=O)C(=O)N[C@@H](CC(=O)O)C(=O)N[C@@H](Cc1ccccc1)C(=O)N[C@H](C(=O)N[C@@H](CC(N)=O)C(=O)N[C@@H](Cc1c[nH]c2ccccc12)C(=O)N[C@@H](CC(C)C)C(=O)N[C@@H](CC(C)C)C(=O)N[C@@H](C)C(=O)NCC(=O)NCC(=O)N1CCC[C@H]1C(=O)N[C@@H](CO)C(=O)N[C@@H](CO)C(=O)NCC(=O)N[C@@H](C)C(=O)N1CCC[C@H]1C(=O)N1CCC[C@H]1C(=O)N1CCC[C@H]1C(=O)N[C@@H](CO)C(N)=O)C(C)C
B3: Example 22 (peptide)
peptide: Y[Aib]EGTFISDYSILLDKK([AEEA-AEEA-γGlu-C18 diacid])HQ[Aib]DFVE[4Pal]LLAGGPSSGAPPPS-NH2
modifications: N-terminus assumed
SMILES: CC[C@H](C)[C@H](NC(=O)[C@H](CO)NC(=O)[C@H](Cc1ccc(O)cc1)NC(=O)[C@H](CC(=O)O)NC(=O)[C@H](CO)NC(=O)[C@@H](NC(=O)[C@H](Cc1ccccc1)NC(=O)[C@@H](NC(=O)CNC(=O)[C@H](CCC(=O)O)NC(=O)C(C)(C)NC(=O)[C@@H](N)Cc1ccc(O)cc1)[C@@H](C)O)[C@@H](C)CC)C(=O)N[C@@H](CC(C)C)C(=O)N[C@@H](CC(C)C)C(=O)N[C@@H](CC(=O)O)C(=O)N[C@@H](CCCCN)C(=O)N[C@@H](CCCCNC(=O)COCCOCCNC(=O)COCCOCCNC(=O)CC[C@H](NC(=O)CCCCCCCCCCCCCCCCC(=O)O)C(=O)O)C(=O)N[C@@H](Cc1c[nH]cn1)C(=O)N[C@@H](CCC(N)=O)C(=O)NC(C)(C)C(=O)N[C@@H](CC(=O)O)C(=O)N[C@@H](Cc1ccccc1)C(=O)N[C@H](C(=O)N[C@@H](CCC(=O)O)C(=O)N[C@@H](Cc1ccncc1)C(=O)N[C@@H](CC(C)C)C(=O)N[C@@H](CC(C)C)C(=O)N[C@@H](C)C(=O)NCC(=O)NCC(=O)N1CCC[C@H]1C(=O)N[C@@H](CO)C(=O)N[C@@H](CO)C(=O)NCC(=O)N[C@@H](C)C(=O)N1CCC[C@H]1C(=O)N1CCC[C@H]1C(=O)N1CCC[C@H]1C(=O)N[C@@H](CO)C(N)=O)C(C)C
B4: Example 21 (peptide)
peptide: Y[Aib]EGTFISDYSIALDKK([AEEA-AEEA-γGlu-C18 diacid])HQ[Aib]DFVE[4Pal]LLAGGPSSGAPPPS-NH2
modifications: N-terminus assumed
SMILES: CC[C@H](C)[C@H](NC(=O)[C@H](CO)NC(=O)[C@H](Cc1ccc(O)cc1)NC(=O)[C@H](CC(=O)O)NC(=O)[C@H](CO)NC(=O)[C@@H](NC(=O)[C@H](Cc1ccccc1)NC(=O)[C@@H](NC(=O)CNC(=O)[C@H](CCC(=O)O)NC(=O)C(C)(C)NC(=O)[C@@H](N)Cc1ccc(O)cc1)[C@@H](C)O)[C@@H](C)CC)C(=O)N[C@@H](C)C(=O)N[C@@H](CC(C)C)C(=O)N[C@@H](CC(=O)O)C(=O)N[C@@H](CCCCN)C(=O)N[C@@H](CCCCNC(=O)COCCOCCNC(=O)COCCOCCNC(=O)CC[C@H](NC(=O)CCCCCCCCCCCCCCCCC(=O)O)C(=O)O)C(=O)N[C@@H](Cc1c[nH]cn1)C(=O)N[C@@H](CCC(N)=O)C(=O)NC(C)(C)C(=O)N[C@@H](CC(=O)O)C(=O)N[C@@H](Cc1ccccc1)C(=O)N[C@H](C(=O)N[C@@H](CCC(=O)O)C(=O)N[C@@H](Cc1ccncc1)C(=O)N[C@@H](CC(C)C)C(=O)N[C@@H](CC(C)C)C(=O)N[C@@H](C)C(=O)NCC(=O)NCC(=O)N1CCC[C@H]1C(=O)N[C@@H](CO)C(=O)N[C@@H](CO)C(=O)NCC(=O)N[C@@H](C)C(=O)N1CCC[C@H]1C(=O)N1CCC[C@H]1C(=O)N1CCC[C@H]1C(=O)N[C@@H](CO)C(N)=O)C(C)C

How the values were obtained:
[1] = molecular target: T1, human glucose-dependent insulinotropic …; test: SPA, displacement of [125I]-GIP from hGIPR membranes, 0.1% bacitracin
Procedure: The binding buffer contains 25 mM HEPES, pH 7.4, 2.5 mM CaCl₂, 1 mM MgCl₂, 0.1% (w/v) bacitracin, 0.003% (w/v) TWEEN®-20, and Roche Complete™ Protease Inhibitors without EDTA. […] Plates are sealed and mixed on a plate shaker (setting 6) for 1 minute and read with a PerkinElmer Trilux MicroBeta® scintillation counter after 2.5 to 12 hours of incubation/settling time at room temperature.
(§1) Data are analyzed using four-parameter (curve maximum, curve minimum, […], Hill slope) nonlinear regression routines (Genedata Screener, version 12.0.4, Genedata AG, Basal, Switzerland). […] Values for Kᵢ are reported as the geometric mean, with error expressed as the standard error of the mean (SEM) and n is equal to the number of independent replicates (determined in assays performed on different days). Geometric Means are calculated as follows: […]

human GLP-1 receptor = molecular target: T2, human GLP-1 receptor (human, UniProt P43220 24-463); test: SPA, displacement of [125I]-GLP-1 from hGLP-1R membranes, 0.1% bacitracin
T2 construct: whole, on cells; Assayed as crude membranes of stably transfected HEK293 cells; also called hGLP1R; hGLP-1R
Procedure: The binding buffer contains 25 mM HEPES, pH 7.4, 2.5 mM CaCl₂, 1 mM MgCl₂, 0.1% (w/v) bacitracin, 0.003% (w/v) TWEEN®-20, and Roche Complete™ Protease Inhibitors without EDTA.
as §1

Row | Binder | Ki [1] | Ki (human GLP-1 receptor)
1 | B1 | 0.0584 nM | 325 nM
2 | B2 | 0.159 nM | 60.7 nM
3 | B3 | 0.219 nM | 388 nM
4 | B4 | 1.46 nM | 801 nM
